From article PMC4522605, “Evolution of plant δ^1-pyrroline-5-carboxylate reductases from phylogenetic and structural perspectives” (Frontiers in Plant Science, 2015)

B1: Arabidopsis thaliana P5CR (δ1-pyrroline-5-carboxylate reductase) (enzyme, UniProt P54904 1-276, looked up)
chain: MEILPIPAESFKVGFIGAGKMAESIARGVVASGVLPPNRICTAVHSNLNRRDVFESFGVNVFSTSEEVVKESDVVIFSVKPQVVKKAVTELKSKLSKNKILVSVAAGIKLNDLQEWSGQDRFIRVMPNTPAAVGEAASVMSLGTGATEEDGAIVAMLFGAVGKILKADEKMFDAVTGLSGSGPAYIFLAIEALADGGVAAGLPRELALSLASQTVLGAATMVSKTGKHPGVLKDDVTSPGGTTIAGVHELEKGSFRATLMNAVVAAAKRSRELSQS
notes: Pyrroline-5-carboxylate reductase of Arabidopsis thaliana; coding gene cloned into pMCSG68 (construct as in Giberti et al., 2014); also called AtP5CR; P5C reductase; source: E. coli BL21 Gold, purified (HisTrap HP, TEV cleavage, second HisTrap HP pass); not shown: His6, N-terminal, cleaved; copies: 10

Key:
[1] = target: Bacillus cereus P5CR (Bc_2977), full-length (Bacillus cereus); test: SEC; HiLoad 16/600 Superdex 200 Prep Grade; 1.5 mL of purified protein at ~5 mg/mL; run in lysis buffer (50 mM HEPES pH 8.0, 500 mM NaCl, 5% glycerol, 20 mM imidazole, 10 mM β-mercaptoethanol); calibrated with chymotrypsinogen A, albumin, SpP5CR decamer (275 kDa) and thyroglobulin
[2] = target: the molecule itself; test: as above

Row | Molecule | stoichiometry N [1] | stoichiometry N [2]
1 | Bacillus cereus P5CR (Bc_2977), full-length (enzyme) | 10 | –
2 | B1 | – | 10
